Results as given in US20210246166A1 (Bayer, published 2021).
One block for each binder: values may come before it. Bridge positions count the residues as written; N and C are the ends. Square brackets hold non-standard residues; d marks the D form. Ends that are not written are not given here. * marks the point of attachment. Benzoyl(3-COOH) = O=C(O)c1cccc(C(=O)*)c1; Benzoyl(4-COOH) = O=C(O)c1ccc(C(=O)*)cc1; Oic = O=C(O)[C@@H]1C[C@@H]2CCCC[C@@H]2N1; tBuAla = CC(C)(C)C[C@H](N)C(=O)O; Pen = CC(C)(S)[C@H](N)C(=O)O; Orn = NCCC[C@H](N)C(=O)O; PEG2 = NCCOCCOCCC(=O)O; Sar = CNCC(=O)O

Columns and labels:
[1] = target: T1, recombinant rat MASP1 active protease (amino acids 302-704, C-terminal His Tag) (rat, UniProt Q8CHN8 302-704); assay: cell-based or functional assay
T1 sequence: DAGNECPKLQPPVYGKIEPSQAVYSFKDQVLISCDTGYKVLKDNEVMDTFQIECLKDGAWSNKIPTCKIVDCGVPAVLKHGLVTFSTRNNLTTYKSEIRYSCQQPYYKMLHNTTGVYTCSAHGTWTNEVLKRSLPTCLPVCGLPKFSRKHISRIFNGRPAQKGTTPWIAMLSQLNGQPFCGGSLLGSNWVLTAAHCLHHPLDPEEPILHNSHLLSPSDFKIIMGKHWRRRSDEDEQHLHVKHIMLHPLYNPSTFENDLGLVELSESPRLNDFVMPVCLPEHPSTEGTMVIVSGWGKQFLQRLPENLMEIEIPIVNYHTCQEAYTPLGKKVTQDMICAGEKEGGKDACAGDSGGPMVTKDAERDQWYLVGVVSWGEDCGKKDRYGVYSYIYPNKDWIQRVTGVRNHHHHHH

[2] = target: recombinant rat MASP2 active protease (amino acids 296-685, C-terminal His Tag) (rat, UniProt Q9JJS8 296-685); assay: cell-based or functional assay
recombinant rat MASP2 active protease (amino acids 296-685, C-terminal His Tag), sequence (Q9JJS8 other isoform, or with tags, fused parts or gaps limits assumed): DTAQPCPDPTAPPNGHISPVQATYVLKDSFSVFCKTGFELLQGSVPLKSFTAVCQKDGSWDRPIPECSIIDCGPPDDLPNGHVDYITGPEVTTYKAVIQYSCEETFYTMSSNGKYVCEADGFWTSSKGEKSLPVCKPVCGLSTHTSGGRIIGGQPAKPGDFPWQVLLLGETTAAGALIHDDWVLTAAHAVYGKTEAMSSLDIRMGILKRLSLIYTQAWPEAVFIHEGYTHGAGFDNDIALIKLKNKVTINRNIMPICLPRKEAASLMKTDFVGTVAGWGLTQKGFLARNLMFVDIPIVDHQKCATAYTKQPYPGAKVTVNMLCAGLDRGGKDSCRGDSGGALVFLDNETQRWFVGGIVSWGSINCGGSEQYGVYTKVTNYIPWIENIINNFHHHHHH

rat MASP1 IC50 [1]: 31 nM
rat MASP2 IC50 [2]: 31 nM
Binder: [Sar]ICSRS[tBuAla]PPI[Pen]IP-{PEG5‑CH2CO2H(18 atoms)-OH} (disulfide 3-11) [Example 496: ((N-Me)G)-IC+SRS-((tBu)A)-PPI-(Pen)+IP-(PEG5-CH2CO2H(18 atoms))-OH]

rat MASP1 IC50 [1]: 65 nM
rat MASP2 IC50 [2]: 81 nM
B2: Example 492: ((N-Me)G)-IC+SRSLP-(Oic)-I-(Pen)+IPT-OH (peptide)
peptide: [Sar]ICSRSLP[Oic]I[Pen]IPT-OH
modifications: disulfide 3-11; N-terminus assumed
SMILES: CC[C@H](C)[C@H](NC(=O)CNC)C(=O)N[C@H]1CSSC(C)(C)[C@@H](C(=O)N[C@H](C(=O)N2CCC[C@H]2C(=O)N[C@H](C(=O)O)[C@@H](C)O)[C@@H](C)CC)NC(=O)[C@H]([C@@H](C)CC)NC(=O)[C@@H]2C[C@@H]3CCCC[C@@H]3N2C(=O)[C@@H]2CCCN2C(=O)[C@H](CC(C)C)NC(=O)[C@H](CO)NC(=O)[C@H](CCCNC(=N)N)NC(=O)[C@H](CO)NC1=O

rat MASP1 IC50 [1]: 44 nM
rat MASP2 IC50 [2]: 42 nM
Binder: [Sar]ICSRS[tBuAla]PPI[Pen]IP-{PEG2-OH} (disulfide 3-11) [Example 498: ((N-Me)G)-IC+SRS-((tBu)A)-PPI-(Pen)+IP-(PEG1(10 atoms))-OH]

rat MASP1 IC50 [1]: 45 nM
rat MASP2 IC50 [2]: 66 nM
B4: Example 495: ((N-Me)G)-IC+SRSLP-(Oic)-I-(Pen)+IPGd-OH (peptide)
peptide: [Sar]ICSRSLP[Oic]I[Pen]IPG[dD]-OH
modifications: disulfide 3-11; N-terminus assumed
SMILES: CC[C@H](C)[C@H](NC(=O)CNC)C(=O)N[C@H]1CSSC(C)(C)[C@@H](C(=O)N[C@H](C(=O)N2CCC[C@H]2C(=O)NCC(=O)N[C@H](CC(=O)O)C(=O)O)[C@@H](C)CC)NC(=O)[C@H]([C@@H](C)CC)NC(=O)[C@@H]2C[C@@H]3CCCC[C@@H]3N2C(=O)[C@@H]2CCCN2C(=O)[C@H](CC(C)C)NC(=O)[C@H](CO)NC(=O)[C@H](CCCNC(=N)N)NC(=O)[C@H](CO)NC1=O

rat MASP1 IC50 [1]: 44 nM
rat MASP2 IC50 [2]: 49 nM
B5: Example 493: ((N-Me)G)-IC+SRSLP-(Oic)-I-(Pen)+IPY-OH (peptide)
peptide: [Sar]ICSRSLP[Oic]I[Pen]IPY-OH
modifications: disulfide 3-11; N-terminus assumed
SMILES: CC[C@H](C)[C@H](NC(=O)CNC)C(=O)N[C@H]1CSSC(C)(C)[C@@H](C(=O)N[C@H](C(=O)N2CCC[C@H]2C(=O)N[C@@H](Cc2ccc(O)cc2)C(=O)O)[C@@H](C)CC)NC(=O)[C@H]([C@@H](C)CC)NC(=O)[C@@H]2C[C@@H]3CCCC[C@@H]3N2C(=O)[C@@H]2CCCN2C(=O)[C@H](CC(C)C)NC(=O)[C@H](CO)NC(=O)[C@H](CCCNC(=N)N)NC(=O)[C@H](CO)NC1=O

rat MASP1 IC50 [1]: 38 nM
rat MASP2 IC50 [2]: 62 nM
B6: Example 494: ((N-Me)G)-IC+SRSLP-(Oic)-I-(Pen)+IPDA-OH (peptide)
peptide: [Sar]ICSRSLP[Oic]I[Pen]IPDA-OH
modifications: disulfide 3-11; N-terminus assumed
SMILES: CC[C@H](C)[C@H](NC(=O)CNC)C(=O)N[C@H]1CSSC(C)(C)[C@@H](C(=O)N[C@H](C(=O)N2CCC[C@H]2C(=O)N[C@@H](CC(=O)O)C(=O)N[C@@H](C)C(=O)O)[C@@H](C)CC)NC(=O)[C@H]([C@@H](C)CC)NC(=O)[C@@H]2C[C@@H]3CCCC[C@@H]3N2C(=O)[C@@H]2CCCN2C(=O)[C@H](CC(C)C)NC(=O)[C@H](CO)NC(=O)[C@H](CCCNC(=N)N)NC(=O)[C@H](CO)NC1=O

rat MASP1 IC50 [1]: 58 nM
rat MASP2 IC50 [2]: 39 nM
B9: Example 497: ((N-Me)G)-IC+SRS-((tBu)A)-PPI-(Pen)+IP-((N-Me)G)-((N-Me)G)-((N-Me)G)-OH (peptide)
peptide: [Sar]ICSRS[tBuAla]PPI[Pen]IP[Sar][Sar][Sar]-OH
modifications: disulfide 3-11; N-terminus assumed
SMILES: CC[C@H](C)[C@H](NC(=O)CNC)C(=O)N[C@H]1CSSC(C)(C)[C@@H](C(=O)N[C@H](C(=O)N2CCC[C@H]2C(=O)N(C)CC(=O)N(C)CC(=O)N(C)CC(=O)O)[C@@H](C)CC)NC(=O)[C@H]([C@@H](C)CC)NC(=O)[C@@H]2CCCN2C(=O)[C@@H]2CCCN2C(=O)[C@H](CC(C)(C)C)NC(=O)[C@H](CO)NC(=O)[C@H](CCCNC(=N)N)NC(=O)[C@H](CO)NC1=O

Continued, binder first:

Binder: [(S)‑Piperidine‑3‑Carboxylic Acid]ICSRSLP[Oic]I[Pen]IPD-OH (disulfide 3-11) [Example 489: ((S)-Piperidine-3-Carboxylic Acid)-IC+SRSLP-(Oic)-I-(Pen)+IPD-OH]
rat MASP1 IC50 [1]: 42 nM
rat MASP2 IC50 [2]: 22 nM

B1: Example 487: ((N-Me)G)-IC+SRSLP-(Oic)-I-(Pen)+IPR-OH (peptide)
peptide: [Sar]ICSRSLP[Oic]I[Pen]IPR-OH
modifications: disulfide 3-11; N-terminus assumed
SMILES: CC[C@H](C)[C@H](NC(=O)CNC)C(=O)N[C@H]1CSSC(C)(C)[C@@H](C(=O)N[C@H](C(=O)N2CCC[C@H]2C(=O)N[C@@H](CCCNC(=N)N)C(=O)O)[C@@H](C)CC)NC(=O)[C@H]([C@@H](C)CC)NC(=O)[C@@H]2C[C@@H]3CCCC[C@@H]3N2C(=O)[C@@H]2CCCN2C(=O)[C@H](CC(C)C)NC(=O)[C@H](CO)NC(=O)[C@H](CCCNC(=N)N)NC(=O)[C@H](CO)NC1=O
rat MASP1 IC50 [1]: 67 nM
rat MASP2 IC50 [2]: 38 nM

B3: Example 490: (4-Carboxybenzoic acid)-GIC+SRSLP-(Oic)-I-(Pen)+IPD-OH (peptide)
peptide: {Benzoyl(4-COOH)}-GICSRSLP[Oic]I[Pen]IPD-OH
modifications: disulfide 3-11
SMILES: CC[C@H](C)[C@H](NC(=O)CNC(=O)c1ccc(C(=O)O)cc1)C(=O)N[C@H]1CSSC(C)(C)[C@@H](C(=O)N[C@H](C(=O)N2CCC[C@H]2C(=O)N[C@@H](CC(=O)O)C(=O)O)[C@@H](C)CC)NC(=O)[C@H]([C@@H](C)CC)NC(=O)[C@@H]2C[C@@H]3CCCC[C@@H]3N2C(=O)[C@@H]2CCCN2C(=O)[C@H](CC(C)C)NC(=O)[C@H](CO)NC(=O)[C@H](CCCNC(=N)N)NC(=O)[C@H](CO)NC1=O
rat MASP1 IC50 [1]: 12.5 nM
rat MASP2 IC50 [2]: 15 nM

B7: Example 486: ((N-Me)G)-IC+SRS-((tBu)A)-PPI-(Pen)+IP-(Orn)-D-OH (peptide)
peptide: [Sar]ICSRS[tBuAla]PPI[Pen]IP[Orn]D-OH
modifications: disulfide 3-11; N-terminus assumed
SMILES: CC[C@H](C)[C@H](NC(=O)CNC)C(=O)N[C@H]1CSSC(C)(C)[C@@H](C(=O)N[C@H](C(=O)N2CCC[C@H]2C(=O)N[C@@H](CCCN)C(=O)N[C@@H](CC(=O)O)C(=O)O)[C@@H](C)CC)NC(=O)[C@H]([C@@H](C)CC)NC(=O)[C@@H]2CCCN2C(=O)[C@@H]2CCCN2C(=O)[C@H](CC(C)(C)C)NC(=O)[C@H](CO)NC(=O)[C@H](CCCNC(=N)N)NC(=O)[C@H](CO)NC1=O
rat MASP1 IC50 [1]: 69 nM
rat MASP2 IC50 [2]: 68 nM

B8: Example 491: (3-Carboxybenzoic acid)-GIC+SRSLP-(Oic)-I-(Pen)+IPD-OH (peptide)
peptide: {Benzoyl(3-COOH)}-GICSRSLP[Oic]I[Pen]IPD-OH
modifications: disulfide 3-11
SMILES: CC[C@H](C)[C@H](NC(=O)CNC(=O)c1cccc(C(=O)O)c1)C(=O)N[C@H]1CSSC(C)(C)[C@@H](C(=O)N[C@H](C(=O)N2CCC[C@H]2C(=O)N[C@@H](CC(=O)O)C(=O)O)[C@@H](C)CC)NC(=O)[C@H]([C@@H](C)CC)NC(=O)[C@@H]2C[C@@H]3CCCC[C@@H]3N2C(=O)[C@@H]2CCCN2C(=O)[C@H](CC(C)C)NC(=O)[C@H](CO)NC(=O)[C@H](CCCNC(=N)N)NC(=O)[C@H](CO)NC1=O
rat MASP1 IC50 [1]: 20 nM
rat MASP2 IC50 [2]: 23 nM

Binder: [(R)‑Piperidine‑3‑Carboxylic Acid]ICSRSLP[Oic]I[Pen]IPD-OH (disulfide 3-11) [Example 488: ((R)-Piperidine-3-Carboxylic Acid)-IC+SRSLP-(Oic)-I-(Pen)+IPD-OH]
rat MASP1 IC50 [1]: 41 nM
rat MASP2 IC50 [2]: 36 nM
